According to PMC5353646, “Allosteric modulation of peroxisomal membrane protein recognition by farnesylation of the peroxisomal import receptor PEX19” (Nature Communications, 2017):
Each block holds one molecule with its values, some of them ahead of it. Residues, ends and D or L forms follow the SMILES beside them. No end group written: not given here. *: point of attachment. FITC = O=C1OC2(c3ccc(O)cc3Oc3cc(O)ccc32)c2ccc(NC(=S)*)cc21; fluorescein = fluorescein label on the N-terminus

Tests used:
PEX19 CTD M255R = assay: Fluorescence polarization, ALDP peptide binding to PEX19 CTD M255R; design: species or system human; conditions: with or without farnesylation, FITC-labelled ALDP peptide 20 nM, triplicate (n = 3)
Method: (§1) ALDP peptide (62-AAKAGMNRVFLQRLL-76) fused N-terminally with fluorescein isothiocyanate (FITC), was purchased from Peptide Specialty Laboratories GmbH. The lyophilized powder was dissolved in 1 ml water resulting in a 5 mM stock solution. Overnight dialysis against buffer containing 50 mM Tris pH 8.0, 50 mM NaCl, removed trifluoroacetate counterions. For the determination of each binding curve a 12 point titration was performed with constant concentration of 20 nM labelled peptide with increasing concentrations of PEX19 CTD variants. Starting concentration of PEX19 CTD was 1 mM with 12 serial dilutions reaching 0.5 μM. Reaction mixtures were then transferred into 96-well Optiplate and measured as triplicates in PerkinElmer EnVision plate reader. […]
(§2) Supplementary Figure 6: ALDP af finity measurement for PEX19 CTD proteins using a fluorescence polarization assay . Polarization plots as a function of protein concentration for the direct titration of PEX19 non-farnesylated (black) and farnesylated (red) forms (wild type and residue spedific mutants) into fluorescein-labeled ALDP peptide. […]
(§3) (also on this page, place not known: assay. affinity Fluorescence polarization (mP) wt wtfarn Fluorescence polarization (mP) M179Rfarn 0.00 1.00 Fluorescence polarization (mP) M255Rfarn 0.00 1.00 Fluorescence polarization (mP) I195Kfarn Kd Kd /uni03BCM)

[1] = molecular target: T1, farnesylated wild type PEX19 CTD (Homo sapiens, UniProt P40855); assay: Fluorescence polarization, ALDP peptide binding to farnesylated wild type PEX19 CTD; conditions: ratio farnesylated vs non-farnesylated wild type PEX19 CTD
T1 construct: we studied the human PEX19 CTD (residues 161–299) that includes the native C-terminus; hexahistidine (TEV-cleavable) (cleaved yes); made in house; host or cells: Escherichia coli BL21 (DE3); farnesylated in vitro with recombinant S. cerevisiae farnesyl transferase
T1 sequence (P40855 161-299): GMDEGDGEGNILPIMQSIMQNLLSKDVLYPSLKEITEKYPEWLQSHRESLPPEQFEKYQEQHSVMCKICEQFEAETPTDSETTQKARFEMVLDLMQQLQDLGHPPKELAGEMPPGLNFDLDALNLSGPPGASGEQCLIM
Method: as §1, §2
standard deviations for triplicate measurements (n = 3).
as §3

PEX19 CTD M179R = assay: Fluorescence polarization, ALDP peptide binding to PEX19 CTD M179R; design: species or system human; conditions: with or without farnesylation, FITC-labelled ALDP peptide 20 nM, triplicate (n = 3)
Method: as §1, §2, §3

PEX19 CTD I195K = assay: Fluorescence polarization, ALDP peptide binding to PEX19 CTD I195K; design: species or system human; conditions: with or without farnesylation, FITC-labelled ALDP peptide 20 nM, triplicate (n = 3)
Method: as §1, §2, §3

[2] = molecular target: FITC-labelled ALDP peptide (62-…-76) (human); assay: fluorescence polarisation; 20 nM FITC-ALDP peptide constant, 12-point titration of PEX19 CTD variants from 1 mM to 0.5 uM; 50 mM Tris pH 8.0, 50 mM NaCl; triplicates
[3] = NMR 13C secondary chemical shifts (peptide conformation); assay type: physicochemical; conditions: C-terminally extended version of the ALDP peptide with additional tryptophan (residue 68 to 82)
Text: Phe71 aromatic ring protons
Residue number Leucine residue
Supplementary Figure 8: Intermolecular NOEs between PEX19 CTD and the ALDP peptide, and secondary structure of the latter. (a) 1H,1H plane of a 3D ω1-filtered, ω2-edited 13C-NOESY-HSQC experiment of farnesylated PEX19 CTD free (black) and bound to the ALDP peptide (red). Methyl and methylene protons of the unlabeled farnesyl group of the PEX19 CTD show NOEs with protons of the isotope-labeled farnesylated PEX19 CTD (black circles). In the presence of also unlabeled ALDP peptide additional intermolecular methyl-methyl and aliphatic-aromatic NOEs are observed (red circles and below). (b) NMR 13C secondary chemical shifts of a C-terminally extended […]
tion. (c) Due to signal overlap, 5 out of 7 spin systems for leucine residues were assigned. Nevertheless, also the leucines residues adopt a helical conformation.
(also on this page, place not known: (Leu75)(Leu76) (Leu81)(Leu82) 5 LeuC Cα- Cβ [p.p.m.] Cα- Cβ [p.p.m.] c ω2 ω1 1H (p.p.m.) ω1 1H (p.p.m.) QDPro273/Pro274 { - - { 5)

farnesylated PEX19 CTD = molecular target: T2, farnesylated PEX19 CTD (Homo sapiens, UniProt P40855); assay: NMR titration of farnesylated PEX19 CTD with PMP peptides; assay type: binding; conditions: 1H,15N HSQC, 298 K, ALDP at 5 and 10 molar ratio with 100 μM PEX19 CTD, PEX13 at 1:1.5 and 1:0.5 with 50 μM
T2 construct: we studied the human PEX19 CTD (residues 161–299) that includes the native C-terminus; hexahistidine (TEV-cleavable) (cleaved yes); made in house; host or cells: Escherichia coli BL21 (DE3); farnesylated in vitro with recombinant S. cerevisiae farnesyl transferase
T2 sequence (P40855 161-299): T1 sequence (P40855 161-299)

[4] = molecular target: T3, farnesylated human PEX19 C-terminal domain (residues 161-299) (human, UniProt P40855 161-299, farnesyl group on Cys296 (CaaX box)); assay: FP; farnesylated PEX19
T3 chain: T1 sequence (P40855 161-299)

[5] = molecular target: T4, non-farnesylated human PEX19 C-terminal domain (residues 161-299) (human, UniProt P40855 161-299); assay: FP
T4 chain: T1 sequence (P40855 161-299)

[6] = molecular target: T5, non-farnesylated human PEX19 C-terminal domain (residues 161-299) (human, UniProt P40855 161-299); assay: MST; fluorescein-PEX11B peptide (200 nM stock) constant, unlabelled PEX19 CTD serially diluted from 612 uM to 18 nM; 20 mM potassium phosphate pH 6.5, 50 mM NaCl, 20% methanol, 0.1% Tween; three measurements; conditions: both partners purified
T5 construct: Peroxisomal biogenesis factor 19 (PEX19), human, C-terminal domain, residues 161-299 with the native C-terminus and CaaX box; 15N- (or 13C/2H-) labelled for NMR; Expressed from pETM11; also called PEX19 CTD; non-farnesylated PEX19 CTD; source: E. coli BL21 (DE3), purified (Ni-NTA, TEV cleavage, size-exclusion chromatography)
T5 sequence (looked up): T1 sequence (P40855 161-299)

[7] = molecular target: T6, farnesylated human PEX19 C-terminal domain (residues 161-299) (human, UniProt P40855 161-299, farnesyl group on Cys296 (CaaX box)); assay: as above; conditions: both partners purified
T6 construct: Peroxisomal biogenesis factor 19 (PEX19), human, C-terminal domain, residues 161-299, farnesylated at Cys296; Virtually complete farnesylation by SDS-PAGE and NMR; Isotope-labelled for NMR; also called farnesylated PEX19 CTD; source: E. coli BL21 (DE3), purified; farnesylated in vitro with S. cerevisiae farnesyl transferase, then Ni-NTA and Superdex 75
T6 sequence (looked up): T1 sequence (P40855 161-299)

[8] = system: PEX19-deficient human fibroblasts (ΔPEX19 T); assay: Functional complementation of PEX19-deficient fibroblasts (peroxisomal protein import); assay type: cell-based; conditions: full-length PEX19 variants; 72 h after transfection; at least 100 cells in three independent transfections; series of Fig. 3c
Text: A bicistronic expression plasmid coding for eGFP-PTS1 and non-tagged PEX14 (pMF1220)[43] was kindly provided by Marc Fransen (Leuven, Belgium). pIRES2-HsPEX19-eGFP-PTS1 was constructed by replacing the open reading frame of PEX14 (BglII/SalI) with a DNA-cassette encoding the full-length open reading frame of human PEX19 as derived from BamHI/SalI digestion of pAH05 (ref. [44]). Single point mutations were introduced into the PEX19 sequence by Quickchange XL Site-directed Mutagenesis kit (Stratagene) using primer pairs (Supplementary Table 1). The bicistronic expression vectors coding for PEX19 variants and eGFP-PTS1 were transfected into the human cell-line ΔPEX19 T which was derived from PEX19-deficient Zellweger patient fibroblasts. ΔPEX19 T cells, characterized by a defect in peroxisome biogenesis were routinely authenticated by functional complementation assays as described below and checked for mycoplasma contamination using Venor GeM Advance Mycoplasm Detection Kit (Minerva Biolabs). The efficiency of transfection according to the Amaxa Cell Line Nucleofector Kit R protocol (Lonza Cologne AG) was always around 90%. After 72 h of transfection, cells were subjected to fluorescence and immunofluorescence microscopy using polyclonal antiserum against human PEX14 (ref. [45]) (1:400 diluted) or monoclonal antibodies against human PEX19 (BD Biosciences, MA5-17266 Thermo Scientific; 1:400 diluted). Statistical analysis was carried out from three independent transfections of each pIRES-PEX19-eGFP-PTS1 expression plasmid. Based on the appearance of eGFP-PTS1 fluorescence pattern, about 100 cells of each experiment were visually categorized into three classes, (i) full complementation of peroxisomal import as visualized by punctuate staining pattern, (ii) partial complementation as indicated by diffuse cytosolic staining with few dots, (iii) no complementation resulting in only cytosolic staining. All micrographs were recorded on a Zeiss Axioplan 2 microscope with a Zeiss Plan-Apochromat × 63/1.4 oil objective and an Axiocam MR digital camera, and were processed with AxioVision 4.6 software (Zeiss, Jena, Germany). The steady-state level of PEX19 expression was assessed by immunoblot analysis, using monoclonal mouse antibodies against HsPEX19 (BD Biosciences, MA5-17266; 1:1,000 diluted) (Supplementary Fig. 9).

[9] = system: peroxisome biogenesis in cells; conditions: ref Sacksteder et al, Gould J Cell Biol 2000; cited from earlier work
Text: page 14: remnants (and this is also what can be seen in these figures). To improve clarity and avoid confusion, the authors should correct these mistakes. […] The sentence on page 9 now reads “Cells that are not complemented by functional PEX19 show a cytosolic mislocalization of the peroxisomal marker protein GFP-PTS1 and a diffuse background immunolabelling of the peroxisomal membrane protein PEX14 that is different from the peroxisomal pattern and known to be due to mislocalization to mitochondria (Fig. 5c, ΔPEX19).” Accordingly, the legend of Figure 5 ...

binding to PEX19 CTD M255R (PEX19 CTD M255R): impaired binding
increase in affinity upon farnesylation of wild type PEX19 CTD [1]: seven
binding to PEX19 CTD M179R (PEX19 CTD M179R): impaired binding
binding to PEX19 CTD I195K (PEX19 CTD I195K): impaired binding
Molecule: CSCC[C@H](NC(=O)CNC(=O)[C@H](C)NC(=O)[C@H](CCCCN)NC(=O)[C@H](C)NC(=O)[C@H](C)NC(=S)Nc1ccc2c(c1)C(=O)OC21c2ccc(O)cc2Oc2cc(O)ccc21)C(=O)N[C@@H](CC(N)=O)C(=O)N[C@@H](CCCNC(=N)N)C(=O)N[C@H](C(=O)N[C@@H](Cc1ccccc1)C(=O)N[C@@H](CC(C)C)C(=O)N[C@@H](CCC(N)=O)C(=O)N[C@@H](CCCNC(=N)N)C(=O)N[C@@H](CC(C)C)C(=O)N[C@@H](CC(C)C)C(=O)O)C(C)C [fluorescein-labeled ALDP peptide] ({FITC}-AAKAGMNRVFLQRLL-OH; C-terminus assumed)

fold increase in affinity over non-farnesylated PEX19 CTD [2]: 7 fold
Molecule: farnesylated human PEX19 C-terminal domain (residues 161-299) (from UniProt P40855 161-299) (domain or fragment)

NMR chemical shift perturbations / line broadening of farnesylated PEX19 CTD (farnesylated PEX19 CTD): severe line broadening
Molecule: HFTKVFSAFALVRTIR [PEX13 peptide, peptide derived from the PMP PEX13]
NMR chemical shift perturbations / line broadening of farnesylated PEX19 CTD (farnesylated PEX19 CTD; listed as PEX13): even stronger NMR chemical shift perturbation changes to helix α1, and significant line broadening in the lid region

Continued, molecule first:

Molecule: C-terminally extended: C-terminally extended version of the ALDP peptide, which harbors an additional tryptophan (residue 68 to 82) (NRVFLQRLLWLLRLL; UniProt P33897 68-82, looked up, fragment)
helical conformation of free peptide [3]: largely helical conforma

Molecule: {FITC}-AAKAGMNRVFLQRLL [FITC-labelled ALDP peptide (62-AAKAGMNRVFLQRLL-76)]
Kd [4]: 36 µM
Kd [5]: 262 µM

B1: N-terminally fluorescein-labelled PEX11B peptide (residues 186-200 of human PEX11B) (peptide)
peptide: fluorescein-LALKLRLQVLLLARV
notes: PEX11B, human, residues 186-200; also called PEX11-derived peptide; source: bought: Peptide Specialty Laboratories GmbH, Heidelberg
Kd [6]: 29.8 ± 1.6 µM
Kd [7]: 6.1 ± 0.4 µM

B2: wild type PEX19: full-length wild type human PEX19 expressed in fibroblasts (protein, UniProt P40855 1-299, looked up)
chain: MAAAEEGCSVGAEADRELEELLESALDDFDKAKPSPAPPSTTTAPDASGPQKRSPGDTAKDALFASQEKFFQELFDSELASQATAEFEKAMKELAEEEPHLVEQFQKLSEAAGRVGSDMTSQQEFTSCLKETLSGLAKNATDLQNSSMSEEELTKAMEGLGMDEGDGEGNILPIMQSIMQNLLSKDVLYPSLKEITEKYPEWLQSHRESLPPEQFEKYQEQHSVMCKICEQFEAETPTDSETTQKARFEMVLDLMQQLQDLGHPPKELAGEMPPGLNFDLDALNLSGPPGASGEQCLIM
modifications: full-length
notes: full-length wild type human PEX19 expressed in fibroblasts
cells showing restored peroxisomal protein transport (functional complementation) [8]: 60%
cells with rescue of peroxisome biogenesis [9]: ~50%

B3: PEX19/C296A: human PEX19 with a mutation of the farnesylation site (Sacksteder et al) (protein, UniProt P40855 2-296, looked up, variant C296A)
Peroxisomal biogenesis factor …: AAAEEGCSVGAEADRELEELLESALDDFDKAKPSPAPPSTTTAPDASGPQKRSPGDTAKDALFASQEKFFQELFDSELASQATAEFEKAMKELAEEEPHLVEQFQKLSEAAGRVGSDMTSQQEFTSCLKETLSGLAKNATDLQNSSMSEEELTKAMEGLGMDEGDGEGNILPIMQSIMQNLLSKDVLYPSLKEITEKYPEWLQSHRESLPPEQFEKYQEQHSVMCKICEQFEAETPTDSETTQKARFEMVLDLMQQLQDLGHPPKELAGEMPPGLNFDLDALNLSGPPGASGEQA
functional complementation, % of the activity of wild-type PEX19 [9]: ~80%
